Assays:
[1] = biological target: bat star (Patiria miniata) DGCR8 heme-binding domain, HBD-His6 (Patiria miniata (bat star)); experiment: SEC; size exclusion chromatography, last step of the purification; SEC buffer 400 mM NaCl, 20 mM Tris pH 8.0, 1 mM DTT; elution volumes compared (bat star HBD 13.8 mL; human HBD dimer; human NC9 monomer 2.6 mL later)
[2] = biological target: the molecule itself; experiment: as above

Molecule | stoichiometry N [1] | stoichiometry N [2]
bat star (Patiria miniata) DGCR8 heme-binding domain, HBD-His6 (domain or fragment) | 2 | 
human DGCR8 heme-binding domain, HBD-His6 (domain or fragment, UniProt Q8WYQ5 276-498, looked up, Dimer of 54 kDa; also called human HBD; human HBD-His6; not shown: His6, C-terminal, kept) DGETSVQPMMTKIKTVLKSRGRPPTEPLPDGWIMTFHNSGVPVYLHRESRVVTWSRPYFLGTGSIRKHDPPLSSIPCLHYKKMKDNEEREQSSDLTPSGDVSPVKPLSRSAELEFPLDEPDSMGADPGPPDEKDPLGAEAAPGALGQVKAKVEVCKDESVDLEEFRSYLEKRFDFEQVTVKKFRTWAERRQFNREMKRKQAESERPILPANQKLITLSVQDAP |  | 2
